Assay [1] concerns the target human MC1R on HEK293 cells that overexpress it (human) (UniProt Q01726). The assay can be described thus: cell-based or functional assay.
The target of assay [2] is MC1R on B16-SIY cells (mouse) (UniProt Q01727). The assay is described as follows: cell-based or functional assay.
Assay [3] has as its target human PD-L1 (extracellular domain)-Fc fusion protein (human) (UniProt Q9NZQ7). The assay is described as follows: ELISA on human PD-L1 (extracellular domain)-Fc fusion protein.
Assay [4] has the same target. The assay is described as follows: ELISA, PD-L1-Fc coated, detection with HRP anti-human kappa light chain antibody. (In an ELISA, binding on a coated surface is turned into a signal by an enzyme label.)
The target in assay [5] is human MC1R on HEK293 cells that overexpress it (human) (UniProt Q01726). The assay can be described thus: cell surface ELISA on fixed HEK293-MC1R cells.

pEC50: −log10 of the molar value.

Chain of human MC1R on HEK293 cells that overexpress it (human) (Q01726 whole entry): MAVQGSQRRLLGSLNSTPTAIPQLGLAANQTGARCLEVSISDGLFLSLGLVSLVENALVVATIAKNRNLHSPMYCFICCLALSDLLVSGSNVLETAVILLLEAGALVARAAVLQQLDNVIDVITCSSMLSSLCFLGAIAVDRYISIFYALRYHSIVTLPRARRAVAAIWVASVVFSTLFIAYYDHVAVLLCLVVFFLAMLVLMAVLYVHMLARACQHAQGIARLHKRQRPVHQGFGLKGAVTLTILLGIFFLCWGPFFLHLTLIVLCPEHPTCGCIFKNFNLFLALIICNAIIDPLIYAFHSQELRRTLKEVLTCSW
Chain of MC1R on B16-SIY cells (mouse) (Q01727 whole entry, the tested form may be a part): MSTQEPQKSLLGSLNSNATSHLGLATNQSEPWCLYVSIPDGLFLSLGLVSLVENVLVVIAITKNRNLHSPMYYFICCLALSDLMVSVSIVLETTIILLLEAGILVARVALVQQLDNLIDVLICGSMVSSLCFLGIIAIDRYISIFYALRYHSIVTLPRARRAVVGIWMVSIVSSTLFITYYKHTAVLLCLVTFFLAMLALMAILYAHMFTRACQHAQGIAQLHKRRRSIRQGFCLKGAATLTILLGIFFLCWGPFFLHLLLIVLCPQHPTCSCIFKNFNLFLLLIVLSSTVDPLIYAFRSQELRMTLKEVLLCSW
Chain of human PD-L1 (extracellular domain)-Fc fusion protein (human) (Q9NZQ7 19-238): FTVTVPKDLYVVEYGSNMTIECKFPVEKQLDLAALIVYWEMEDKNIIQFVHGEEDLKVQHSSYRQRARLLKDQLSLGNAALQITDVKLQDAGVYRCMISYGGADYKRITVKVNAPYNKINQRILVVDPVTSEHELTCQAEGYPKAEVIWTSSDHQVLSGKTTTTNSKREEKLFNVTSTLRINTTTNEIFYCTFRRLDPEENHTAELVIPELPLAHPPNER

In assay [1], NDP-MSH peptide ([Nle4, D-Phe7]-MSH) came in with a CRE-Luc reporter in HEK 293 cells overexpressing MC1R, EC50 of 0.09 nM. Moreover, the B16-SIY cells cAMP-Glo Assay, EC50 in assay [2] worked out at 0.06 nM.
Consider “NDP-MSH-Synagis (control antibody Synagis conjugated at the heavy chain N-terminal serine to H2NO-NDP-MSH)”, for which, in assay [2], the B16-SIY cells cAMP-Glo Assay, EC50 turned out to be 0.06 nM.
In general, pEC50 refers to the negative decadic logarithm of the EC50, by convention in mol/L. A higher pEC50 goes with a low EC50. For “NDP-MSH-αPD-L1 N-terminal conjugate (Atezolizumab with engineered heavy chain N-terminal serine and 8x(G4S) linker, oxime-ligated to H2NO-NDP-MSH, LAR 2) (bispecific antibody)”, the pEC50 in assay [3] is 10.06. Further, the B16-SIY cells cAMP-Glo Assay, EC50 in assay [2] turned out to be 0.02 nM.
With “NDP-MSH-αPD-L1 conjugate (Avelumab with NDP-MSH conjugated to lysines through BCN/PEG24, LAR about 3.5) (bispecific antibody)”, the results for the pEC50 in assay [4] and in assay [5] were 9.77 and 8.76, respectively. In assay [1], this substance had a CRE-Luc reporter in HEK 293 cells overexpressing MC1R, EC50 of 2.7 nM.

For the origin of these results see US20220354960A1, “IMMUNE CHECKPOINT BLOCKING BISPECIFIC MOLECULES” (THE SCRIPPS RESEARCH INSTITUTE, priority 2019, published 2022).
